The text below walks through data of patent publication US20140274782A1 (Stanford University, published 2014).

Holding throughout (experiment): ProtoArray, GST-treated control array;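 note: human protein microarray (about 9500 recombinant proteins) incubated overnight with GST alone plus SAM cofactor as the negative control for G9a SET domain methylation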
In test [1] the target is HPCAL4-hippocalcin like 4 (HPCAL4) (human, UniProt Q9UM19 1-191).
The target of test [2] is T1, ZRANB1-zinc finger, RAN-binding domain containing 1 (ZRANB1) (human, UniProt Q9UGI0 1-708).
T1 sequence (looked up): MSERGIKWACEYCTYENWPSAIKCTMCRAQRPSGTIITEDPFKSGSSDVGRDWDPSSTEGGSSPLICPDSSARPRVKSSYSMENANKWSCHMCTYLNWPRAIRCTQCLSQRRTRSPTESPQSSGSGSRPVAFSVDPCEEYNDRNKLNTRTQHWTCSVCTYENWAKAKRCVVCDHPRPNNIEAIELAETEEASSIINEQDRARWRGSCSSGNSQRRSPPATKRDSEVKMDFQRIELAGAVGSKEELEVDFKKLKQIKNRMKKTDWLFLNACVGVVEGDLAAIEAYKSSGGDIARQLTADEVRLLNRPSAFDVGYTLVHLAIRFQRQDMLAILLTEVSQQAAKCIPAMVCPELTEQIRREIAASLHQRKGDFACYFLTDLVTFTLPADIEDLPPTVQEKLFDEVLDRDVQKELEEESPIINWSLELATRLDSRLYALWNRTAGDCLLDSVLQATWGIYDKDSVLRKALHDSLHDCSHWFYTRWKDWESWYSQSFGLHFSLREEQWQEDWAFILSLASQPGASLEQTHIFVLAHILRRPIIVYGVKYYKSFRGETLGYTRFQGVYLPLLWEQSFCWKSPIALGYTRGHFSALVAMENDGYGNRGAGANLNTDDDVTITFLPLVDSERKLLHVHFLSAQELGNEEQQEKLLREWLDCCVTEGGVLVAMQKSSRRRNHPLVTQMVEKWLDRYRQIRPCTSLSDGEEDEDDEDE

The target of test [3] is LOC145788-PREDICTED: Homo sapiens hypothetical LOC145788 (LOC145788) (human).
The target in test [4] is PSMA8-proteasome (prosome, macropain) subunit, alpha type, 8 (PSMA8) (human, UniProt Q8TAA3 1-256, limits assumed).
Test [5] addresses T2, Magmas-mitochondria-associated protein involved in granulocyte-macrophage colony-stimulating factor signal … (human, UniProt Q9Y3D7 1-125).
T2 sequence (looked up): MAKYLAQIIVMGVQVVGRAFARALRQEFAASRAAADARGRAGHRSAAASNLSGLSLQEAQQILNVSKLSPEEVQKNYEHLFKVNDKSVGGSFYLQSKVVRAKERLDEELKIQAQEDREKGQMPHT

Test [6] deals with T3, GFOD1-Glucose-fructose oxidoreductase domain-containing protein 1 (human, UniProt Q9NXC2 22-390, limits assumed).
T3 sequence (looked up): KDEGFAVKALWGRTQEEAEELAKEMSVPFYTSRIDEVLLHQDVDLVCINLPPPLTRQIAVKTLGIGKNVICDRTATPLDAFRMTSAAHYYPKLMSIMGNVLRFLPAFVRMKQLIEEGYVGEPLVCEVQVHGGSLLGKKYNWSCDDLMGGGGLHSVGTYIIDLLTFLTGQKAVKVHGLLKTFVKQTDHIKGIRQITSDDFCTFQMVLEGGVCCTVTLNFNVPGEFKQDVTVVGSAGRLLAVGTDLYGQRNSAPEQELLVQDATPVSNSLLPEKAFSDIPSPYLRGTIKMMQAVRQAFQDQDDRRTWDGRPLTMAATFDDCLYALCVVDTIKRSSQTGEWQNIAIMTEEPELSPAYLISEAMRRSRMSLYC

Test [7] has as its target T4, CSF3-Granulocyte colony-stimulating factor (human, UniProt P09919 31-207, limits assumed).
T4 sequence (looked up): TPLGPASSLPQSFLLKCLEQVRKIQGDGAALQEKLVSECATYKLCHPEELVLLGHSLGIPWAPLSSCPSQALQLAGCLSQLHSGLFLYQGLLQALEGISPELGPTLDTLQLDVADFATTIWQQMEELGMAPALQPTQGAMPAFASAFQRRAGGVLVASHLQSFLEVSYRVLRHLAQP

For test [8], the target named is T5, SCGB1A1-secretoglobin, family 1A, member 1 (uteroglobin) (SCGB1A1) (human, UniProt P11684 22-91, limits assumed).
T5 sequence (looked up): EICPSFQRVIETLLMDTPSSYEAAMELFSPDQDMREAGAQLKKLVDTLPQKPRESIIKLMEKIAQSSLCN

In test [9] the target is T6, GHRL-ghrelin/obestatin preprohormone (GHRL) (human, UniProt Q9UBU3 1-117, limits assumed).
T6 sequence (looked up): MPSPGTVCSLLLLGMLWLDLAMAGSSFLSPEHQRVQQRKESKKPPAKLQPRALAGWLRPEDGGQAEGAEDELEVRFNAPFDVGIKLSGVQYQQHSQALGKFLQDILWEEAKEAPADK

The target of test [10] is T7, UBE2S-Ubiquitin-conjugating enzyme E2 S (human, UniProt Q16763 1-222).
T7 sequence (looked up): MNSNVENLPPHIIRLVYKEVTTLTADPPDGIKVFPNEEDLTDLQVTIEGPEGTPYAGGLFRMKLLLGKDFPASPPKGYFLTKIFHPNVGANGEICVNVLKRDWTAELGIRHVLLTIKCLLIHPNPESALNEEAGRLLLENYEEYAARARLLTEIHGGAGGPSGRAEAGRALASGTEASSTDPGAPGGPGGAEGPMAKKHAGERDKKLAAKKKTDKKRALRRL

For test [11], the target named is T8, CCL24-C-C motif chemokine 24 (human, UniProt O00175 27-119, limits assumed).
T8 sequence (looked up): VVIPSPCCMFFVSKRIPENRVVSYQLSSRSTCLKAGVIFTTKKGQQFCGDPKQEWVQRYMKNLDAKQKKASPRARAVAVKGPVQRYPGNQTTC

PSMA8-proteasome (prosome, macropain) subunit, alpha type, 8 (PSMA8), sequence (Q8TAA3 whole entry): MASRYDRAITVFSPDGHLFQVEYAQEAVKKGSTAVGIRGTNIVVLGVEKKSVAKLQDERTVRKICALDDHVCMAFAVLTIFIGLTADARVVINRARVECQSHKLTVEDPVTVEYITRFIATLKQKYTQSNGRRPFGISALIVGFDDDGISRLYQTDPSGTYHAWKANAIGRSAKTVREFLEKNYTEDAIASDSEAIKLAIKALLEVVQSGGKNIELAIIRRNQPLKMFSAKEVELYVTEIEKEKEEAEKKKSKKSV
HPCAL4-hippocalcin like 4 (HPCAL4), sequence (Q9UM19 whole entry, the tested form may be a part): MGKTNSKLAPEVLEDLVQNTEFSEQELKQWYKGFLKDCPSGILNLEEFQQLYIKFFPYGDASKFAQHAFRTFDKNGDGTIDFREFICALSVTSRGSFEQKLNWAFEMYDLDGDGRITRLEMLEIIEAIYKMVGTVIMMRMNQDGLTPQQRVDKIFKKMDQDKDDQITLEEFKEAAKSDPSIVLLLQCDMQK

B1: 3× Flag-3×MBT (designed binder)
chain: EEWSSSQPATGEKKECWSWESYLEEQKAITAPVSLFQDSQAVTHNKNGFKLGMKLEGIDPQHPSMYFILTVAEVCGYRLRLHFDGYSECHDFWVNANSPDIHPAGWFEKTGHKLQPPKGYKEEEFSWSQYLRSTRAQAAPKHLFVSQSHSPPPLGFQVGMKLEAVDRMNPSLVCVASVTDVVDSRFLVHFDNWDDTYDYWCDPSSPYIHPVGWCQKQGKPLTPPQDYPDPDNFCWEKYLEETGASAVPTWAFKVRPPHSFLVNMKLEAVDRRNPALIRVASVEDVEDHRIKIHFDGWSHGYDFWIDADHPDIHPAGWCSKTGHPLQPPLGPREPSSASPGG
notes: also called Flag-tagged 3×MBT; 3xFlag-3xMBT; not shown: made by PreScission cleavage of GST-3× Flag-3×MBT
For B1, the “GST Average SNR” value in [1] was -0.871; in [2], -0.43; in test [3] it was 0.224; in [4], -0.846; in [5], -1.16; in [6] it was 0.413. For the same molecule, the “GST Average SNR” value was 1.27 in [7]; 1.16 in test [8]; 0.402 in test [9]; 0.283 in test [10]; 0.109 in [11].
